{
  "source": "the DeepSol protein solubility set",
  "data": [
    {"test": "soluble on expression in E. coli; label from the status in PepcDB or PDB records", "values": [
      {"sequence": "MAHHHHHHMEVKEVQPQKRLQPACDAKGENGFPLTIPCERQKVANLAPHRPLRRFLEAMRADNQNLCALKGSAVHHLKKDLRGDEKQVVLSCETPSRSNRLREKYECMKKMRFNETQEALARECDLSRIIIELQKRIEDAEASREFEREVHARESFYLLKENECLKEQVRTTEKMLLDVRNNYNLEISKLNTRVSDLEDSLVAEGQRAKTREAEQERAIQNLCSNLYTTQGELERYVEKNRELASVNSLLEEMRAESWRDKRECTVWYEVLRRREVFMLLEREAFTELQCLCMQEMNRFWQIKDDSYQAMFCSEAERFLGHIIREAEICYEMKQLMFDNATASIEKETWISLHFSKVQELSRLSEKHEALSILLAQYMREVEEIQQGNLEQVLRRKTVDDASIAYMLHQRDNEVSDKLRTWKGALQEAHKLLTALLKRYEPFQRGDEVFVGRVMEWLISAPHVKEVINVFLP", "soluble on expression in E. coli": "not soluble"},
      {"sequence": "MEQPQEEAPEVREEEEKEEVAEAEGAPELNGGPQHALPSSSYTDLSRSSSPPSLLDQLQMGCDGASCGSLNMECRVCGDKASGFHYGVHACEGCKGFFRRTIRMKLEYEKCERSCKIQKKNRNKCQYCRFQKCLALGMSHNAIRFGRMPEAEKRKLVAGLTANEGSQYNPQVADLKAFSKHIYNAYLKNFNMTKKKARSILTGKASHTAPFVIHDIETLWQAEKGLVWKQLVNGLPPYKEISVHVFYRCQCTTVETVRELTEFAKSIPSFSSLFLNDQVTLLKYGVHEAIFAMLASIVNKDGLLVANGSGFVTREFLRSLRKPFSDIIEPKFEFAVKFNALELDDSDLALFIAAIILCGGE", "soluble on expression in E. coli": "soluble"},
      {"sequence": "MNDFTTEIVQTLVTKGDLNELFRSHLEKAINTLLRTELTAFLDYEKYDRTGFNSGNSRNGSYFRSIKTEYGELTLEIPRDRNGEFKQQTLPAYKRTNDTLETTIIHLFEKGVTMSEIADLIEKMYGHHYTPQTMSNMTKVLTEEVNAFKSRALNDKYVAIFMDATYIPLKRQTVSKEAIYIAIGIREDGTKEVLSYAIAPTESTYVWNELLQDINSRGVQEVLLFITDGLKGMKDTIHQIYPKAKYQHCCIHVSRNIAHKVRVKDRKEICDDFKAVYQANSKEEANTFLSGMIEKWKKNYPKVTQSLIENQDLLTFYDFPPSIRRTIYSTNLIESFNKQIKRYSRRKEQFQNEESLERFLVSIFDTYNQKFLNRSHKGFQQVTDTLVSMFTE", "soluble on expression in E. coli": "not soluble"},
      {"sequence": "STAGKVIKCKAAVLWEEKKPFSIEEVEVAPPKAHEVRIKMVATGICRSDDHVVSGTLVTPLPVIAGHEAAGIVESIGEGVTTVRPGDKVIPLWTPQCGKCRVCKHPEGNFCLKNDLSMPRGTMQDGTSRFTCRGKPIHHFLGTSTFSQYTVVDEISVAKIDAASPLEKVCLIGCGFSTGYGSAVKVAKVTQGSTCAVFGLGGAGLSVIMGCKAAGAARIIGVDINKDKFAKAKEVGATECVNPQDYKKPIQEVLTEMSNGGVDFSFEVIGRLDTMVTALSCCQEAYGVSVIVGVPPDSQNLSMNPMLLLSGRTWKGAIFGGFKSKDSVPKLVADFMAKKFALDPLITHVLPFEKINEGFDLLRSGESIRTILTF", "soluble on expression in E. coli": "soluble"},
      {"sequence": "MNIDTKYHGTVAVNEQDIVHFPHGLPGFADEKRFVLLPLADTPFVILQSVETPALGFVLIEPFSYFPTYEFELDEATVEQLDIESERDVAVYVILTVADPFHETTANLQAPVVINARKRFGKQVILANTPYKTKHRLFPEKVAT", "soluble on expression in E. coli": "not soluble"},
      {"sequence": "MKLEFNLIIAGVGGQGGLTLSRIIGNAAMIEGYRVRIGETLGMSQRYGSVLSYLRFGEEVYSPLIEEGKADLMLALEPVEALRNARFLSRKSYAIINAYPIHTATTLVGKERYPDLEEIKEAIGKICRVEMRNFQEEADKINPRTLGVLMTGFAWRKGLLPLKKESIIEGIKLTLREKLWDINFRAFERGVELASL", "soluble on expression in E. coli": "soluble"},
      {"sequence": "MAHHHHHHMGDNILDQKVDLFGGKGIFTKELDEELIKGKVHICVHSLKDVPMELPEQVQLSCFLKRDTINDAFLSVKYGTLEDMNKMKMANKMEEGSYQPKGMSQRVINQNVKRDNYEGDHYDNFIPTIGTSSLRRSSQIKYKYKNVAVKNMRGNINTRIAKLCNGQYDAIIIAKCGLERLTTKKGIRNIIGGKNKVTPKNFLINYNNTEINLTSLHIQQINKRTIYPALCQGIIAVSSHKSDKYISDVLKNINDEKAQIMANIERSFLYQIEGNCMMPIGGYAKIVNGEIVFNAVINDIHGREKYHVREVGKVESYNEIAVMAATKMKEKIGTHRFNKIREEAAQYYA", "soluble on expression in E. coli": "not soluble"},
      {"sequence": "MSLDDEPLLPDFEQLGYPRNLPTLVLGLRGMICEITHSKKNGWGIVKRPGVDKFFNILKNYYEIVIWSDESFPIPHEVLEKWNLPIIGILNKNHFSKINGKLFKNLSRLGRNLNRVILVDNESYSANIQYDNSIVLPIFKGDPYDNELNSIIDLLKAAAMQPGDIREYLKRFRCNDTNIGDEGHHHHHH", "soluble on expression in E. coli": "soluble"},
      {"sequence": "MRKMKTERAKEILVQLLKIPSPSGREDRVALYIMEFLHKLNYDVHIESDGEIIDLVVNPGAELFFEVHMDTIDPRAEPFVRGNIVYGTGASDIKGGIASILLMLEQLRKEGKDLNVGIVFVSDEEKGGRGSALFMERYRPKMAVVLEPTDLEVHIAHAGNIEAYFEVDGKEAHGACPESGINAIEQTFEMLQKLKDLEPFKAKGKYFDPHIGIQELICENPYYLIPALCKGRLEARLLPDQEVEDILDLIDPILDEYTVKYEYTEIWDGYELSEDEEIVQIAKSAMDMVGLDEFGAMRSWTDAINFTYNGTKTIVFGPGNLDISHTKQERIDVRDVVKASEFLLAVNEIFGNKS", "soluble on expression in E. coli": "soluble"},
      {"sequence": "MMEKSTLLQIKRDIETCVGQKIQLKANKGRKKAFIREGIVENTYPSIFVVKFENDYDTVRRVSYSYTDILTKAVEITVCEDNRKIQVS", "soluble on expression in E. coli": "soluble"},
      {"sequence": "MGSDKIHHHHHHMQLSAMFVHPVKSCRGIAFDRAYAGKLGLLHDREWLLVSPDGQQITARAHPKLVTIRVELLPGGALLHHSGKAPIFAMATAYTRPHPAQVWKDGFQAWHGDERVDAWFADILGCDCRLLWLGAQSNRPFKGGPETMSFADGYPFLLASQASLDDLNRQLAAPVTLRHFRPNLVVSGAYPWEEDEWQVIRIGDVEFDVVKPCVRCVLTTVDPELGEKRADGEPLQTLIRTRMLDAGVCFGMNLRARNEGVLELGAPVEVLEQRYSF", "soluble on expression in E. coli": "not soluble"},
      {"sequence": "MSLAHFSVLPPEINSLRMYLGAGSAPMLQAAAAWDGLAAELGTAASSFSSVTTGLTGQAWQGPASAAMAAAAAPYAGFLTTASAQAQLAAGQAKAVASVFEAAKAAIVPPAAVAANREAFLALIRSNWLGLNAPWIAAVESLYEEYWAADVAAMTGYHAGASQAAAQLPLPAGLQQFLNTLPNLGIGNQGNANLGGGNTGSGEGHHHHHH", "soluble on expression in E. coli": "not soluble"},
      {"sequence": "MVQHQMFDPGVADLLDTDILTSPSKRKRKLKIDDISTSDRSELEDYIVLENVYRMFGITFFPLVDPIDLKIKDASGEIFVDREMLGIRLEVFSERTSQFEKPHYVLLKKRIKSNSWFLFKHTIPSFIDVQGIFDDTNGGLVISHDDAYLFAKRVFLQLVEVQKRRQIFKDLEAKKIIHDLDLDLESSMVSFFVKDIKVELFVKQNEIVSCSILDDIHDFSQNNKSKWEIALLGSLDDLELKLNHSFATIFK", "soluble on expression in E. coli": "not soluble"},
      {"sequence": "MAHHHHHHMKCFLIVDAQNDFLPTGSFNSRDDYMDTLNKINAIRLRLHNCTEKDLLKLSNCKHLMKYQPDKLLKENIVQYHQCNNDIDDDEREGDILIFPTDHRVMTCLSNRLSASNICSDLHKQTAQGTANGVERIPNNNNNGFSHTKEGTSHNGTHMHNHHPDESHQKNVETNDVETNNLARRNRSKESTNSENAKFALNILSVDYHPPCHISFAETHRILFEQIKRNKGTKNSSAEINIDRVTELSSHAQVNSSVASEEEAEGAHAEEAECDDEGTPSLDHTNEADGGEVQEPPQADLLQSAFLKKNKIFNLTDVMKNIQKIKSTRYIYKNVNSVSDIKEYSKLNFLNEWIDVWPIHCVRNTPGCKVHPNLIRHINDIVIKKADTENHDSHTIFENSEINQKILNLLKKQNIKSVYICGFIFEYCVKETALSFFNLGFDTYIVEDATAYLFGREEDKDNLKKKGIKFVNSSTMFA", "soluble on expression in E. coli": "not soluble"},
      {"sequence": "MSLAKELLIKNACVYDPLNGIEGEVMDIGVKDGKIVDPSEVDESKAKVIDAEGRLTMAGGVDIHAHVAGPKVNVGRIFRPEDSRRLQVAIKKLGTRSGTGFSVPSTTITGYLYAQMGYTTVMEAATPPLLTRHTHEEIRDTPILDEGAYTLMANNWILYEYIKEGELEKAAAYAAWLLRATKGFVIKMVNPGGTEAWGWGENVHSLDDPVPYFEITPAEIYQNYVKINEMLGLPHSIHIHPNLLGEPGNYEITTDSWDVIKKTGVEPNPEIGEREQVVHNTHVQFHSYGGDSWPTFESKAEEVAKYLNKNDHVTVDLGAVTLDETTTMTADGPLEWELQELTGFKWANYDVELETGSGVVPFIYSPKNPVHSVQWAIGLEIALLTENPWQVVISTDHPNAGPFIRYPRIIAWLMSEPYREEWIENVHPWVGQRAAIATIDREYTWTDITITTRAAPAKMLGLSDRIGHLGEGAYAHIAIYDIKPDEVDPSRDYEEVEKAMEQAWLVVKDGEIVVQEGVVVNEPVGRTYWVDVKVPEDLLEEVKKDLETKFRRYYSVNLGNYQVQDVYIPKEERIVIDARDRLSEGHHHHHH", "soluble on expression in E. coli": "soluble"},
      {"sequence": "MGSDKIHHHHHHMSRAPDTWILTADCPSMLGTVDVVTRYLFEQRCYVTEHHSFDDRQSGRFFIRVEFRQPDDFDEAGFRAGLAERSEAFGMAFELTAPNHRPKVVIMVSKADHCLNDLLYRQRIGQLGMDVVAVVSNHPDLEPLAHWHKIPYYHFALDPKDKPGQERKVLQVIEETGAELVILARYMQVLSPELCRRLDGWAINIHHSLLPGFKGAKPYHQAYNKGVKMVGATAHYINNDLDEGPIIAQGVEVVDHSHYPEDLIAKGRDIECLTLARAVGYHIERRVFLNANRTVVL", "soluble on expression in E. coli": "not soluble"},
      {"sequence": "MSLSFELNPIFKRPSVSRELTKRFFFSANNGTRIILFQDSTIRWSFSSDNDHYQSMALRDSDMDVTGAIISDPGDYLCLYNSHQIRVIEIPWGLTNVDEISNSMASSLQERVYNFNEDKLSVKQVLFHPLSKSSPFLVVLFSGSQIAFVDLKNVFKSSDIPIDCFLNLTDSNVMGIDNRVENIQYVVFADDCLSLYSLTDTDVYCFYPCLPPVASLSKNRVDELINKSIVLYENLGIDADDIVRKNVIKQLQLASSLRKKIEEFENANGEVEVNVEIDLEFRQTKAQGYFSISPYPESLYTCTGKQISVLPIGEGNELFLVSFDNGTVLVVFKDKESTMSWDVNDYSFNNSFTLVEIIKFKPEELSNMVVLQGELGKFVVSGEKSTILVDTTKWSSVISKCIRDNDLRPLVGLEMKSTITHINSDMQINSCGIWNSGEAKSLLLVDTNVVVGYQLFKKEVEFKPESAEEISTELENFTLDKFTVPENELKAANYKFQEAVSVPYSKVIPANIKQVPFGSNAMEEQLKILNDISRDVGSKIVQGQSLGLMLYDRLLEQQDKLSEQLIITNKILIRAKKVQGDYPAQLSKLDEKLKKQEHLEKILLKMESNLNTIQESQKLKSLPLSEKEIQLFKELRSQILLFNNFVHKQKDQKQNIQFLKKELQKIIDISRSESSKGMLNEWEELRQILADDAKIIKECNEQLTQISKELDTKNTVTNSEGHHHHHH", "soluble on expression in E. coli": "soluble"},
      {"sequence": "MAHHHHHHMLLSVLHAPRQASIAAPLHKVQSCAYAAPDTVSAVLADCLGKDIAPVLRYLTAFATPPVSKPTSHQSHHLAASTRVLRHALVLLLYSFVTTWRGAPPRETPPPPGAIALTREERALALELCRCVAALNESDTGSESIATGERRGDTSAQAHSRDARAEATGSHVTSLEAVTGAQFALVRDALADMLAPDHHSDGSAASTPVRARDSVAGNGPLWRACEAWIAGAVGTAVGASVAPPSSPFAGITGVRMKEEEAVDLLERVNDQLNQIARGGAVNAASRQCGNSAAMP", "soluble on expression in E. coli": "not soluble"},
      {"sequence": "MWQPATERLQVTYLGKVSTTGMQFLSGCTEKPVIELWKKHTLAREDVFPANALLEIRPFQVWLHHLDHKGEATVHMDTFQVARIAYCTADHNVSPNIFAWVYREINDDLSYQMDCHAVECESKLEAKKLAHAMMEAFRKTFHSMKSDGRIHSNSSSEEVSQELESDDG", "soluble on expression in E. coli": "soluble"}
    ]}
  ]
}
